This note sets out measurements from patent US20200291128A1 (ABEXXA BIOLOGICS, published 2020).

The test has as its target T1, HLA-E*0103 (recombinant, refolded with peptide into monomer complexes).
T1 construct: The paragraph names only the allele
In words: peptide binding and peptide/HLA-E refold into monomer complexes.

YLLPAIVHI [peptide YLLPAIVHI from the protein RNA Helicase]: the binding result is “binds”.
